Results from patent publication US20240301385, “DNA MODIFYING ENZYMES AND ACTIVE FRAGMENTS AND VARIANTS THEREOF AND METHODS OF USE” (LIFEEDIT THERAPEUTICS, INC., published 2024).

B1: SGN001101 sgRNA ; SGN001101 target (ssRNA ; dsDNA)
RNA: AUAUUUUCUUUAAUGGUGCCAGGCAGUCAUAGUUCCAUUAAAGCCAAAAGUGGCUUUGAUGUUUCUAUGAUAAGGGUUUCGACCCGUGGCGUCGGGGAUCGCCUGCCCAUUGAAAUGGGCUUCUCCCCAU
DNA 1: ATATTTTCTTTAATGGTGCCAGGCA
DNA 2: TGCCTGGCACCATTAAAGAAAATAT
B2: SGN000929 sgRNA ; SGN000929 target (ssRNA ; dsDNA)
RNA: AUCUGGAGGGAACUUACAGCAUAUGGUCAUAGUUCCAUGAAAGCCAAAAGUGGCUUUGAUGUUUCUAUGAUAAGGGUUUCGGCCCGUGGCGUCGGGGAUCGCCUGCCCAUUCCGAUGGGCUUCUCCCCAUUUAUU
DNA 1: ATCTGGAGGGAACTTACAGCATATG
DNA 2: CATATGCTGTAAGTTCCCTCCAGAT
B3: SGN000169 sgRNA ; SGN000169 target (ssRNA ; dsDNA)
RNA: CACAUCUCGAGCAAGACGUUGUCAUAGUUCCAUUAAAGCCAAAAGUGGCUUUGAUGUUUCUAUGAUAAGGGUUUCGACCCGUGGCGUCGGGGAUCGCCUGCCCAUUGAAAUGGGCUUCUCCCCAUUUAUU
DNA 1: CACATCTCGAGCAAGACGTT
DNA 2: AACGTCTTGCTCGAGATGTG

Target: T1, APG00868-L16-nAPG07433.1 (synthetic)
T1 chain: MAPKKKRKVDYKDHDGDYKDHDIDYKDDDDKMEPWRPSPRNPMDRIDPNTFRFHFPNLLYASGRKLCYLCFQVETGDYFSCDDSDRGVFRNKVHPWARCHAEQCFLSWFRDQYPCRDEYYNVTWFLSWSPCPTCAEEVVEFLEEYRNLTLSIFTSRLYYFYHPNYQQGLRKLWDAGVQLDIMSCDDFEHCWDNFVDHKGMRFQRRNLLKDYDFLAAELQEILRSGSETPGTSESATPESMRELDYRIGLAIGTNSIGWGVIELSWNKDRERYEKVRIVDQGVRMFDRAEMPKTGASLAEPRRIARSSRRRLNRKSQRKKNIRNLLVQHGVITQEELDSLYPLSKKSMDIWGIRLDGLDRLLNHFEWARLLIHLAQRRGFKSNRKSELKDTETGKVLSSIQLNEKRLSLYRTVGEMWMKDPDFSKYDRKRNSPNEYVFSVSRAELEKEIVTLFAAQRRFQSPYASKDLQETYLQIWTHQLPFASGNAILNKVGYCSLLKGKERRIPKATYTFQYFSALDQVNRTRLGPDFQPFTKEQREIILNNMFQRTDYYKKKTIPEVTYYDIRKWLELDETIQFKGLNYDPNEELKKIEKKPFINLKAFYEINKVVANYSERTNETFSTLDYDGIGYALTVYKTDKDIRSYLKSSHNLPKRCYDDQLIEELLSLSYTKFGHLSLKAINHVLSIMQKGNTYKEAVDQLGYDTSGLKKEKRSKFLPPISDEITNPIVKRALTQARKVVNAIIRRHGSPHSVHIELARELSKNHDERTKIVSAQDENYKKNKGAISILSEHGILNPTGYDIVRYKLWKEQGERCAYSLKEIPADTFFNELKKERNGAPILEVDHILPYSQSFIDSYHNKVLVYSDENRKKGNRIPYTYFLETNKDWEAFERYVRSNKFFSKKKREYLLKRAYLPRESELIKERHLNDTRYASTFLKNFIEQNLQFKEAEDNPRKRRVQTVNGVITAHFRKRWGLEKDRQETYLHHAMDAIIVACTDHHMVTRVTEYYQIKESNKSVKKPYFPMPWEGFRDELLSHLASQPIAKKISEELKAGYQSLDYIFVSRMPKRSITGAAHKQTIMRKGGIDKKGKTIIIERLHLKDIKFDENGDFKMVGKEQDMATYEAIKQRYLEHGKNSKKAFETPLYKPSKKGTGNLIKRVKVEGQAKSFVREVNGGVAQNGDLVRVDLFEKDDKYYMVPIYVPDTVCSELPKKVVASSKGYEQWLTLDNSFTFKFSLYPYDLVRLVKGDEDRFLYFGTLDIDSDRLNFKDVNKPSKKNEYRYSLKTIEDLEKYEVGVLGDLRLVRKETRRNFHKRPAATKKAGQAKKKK
Assay: cell_activity; HEK293FT; PAM SEQ 152
Details: tags: SV40 NLS, 3xFLAG N-term; nucleoplasmin NLS C-term
Procedure: 500 ng of plasmid comprising an expression cassette comprising a coding sequence for each fusion protein shown in Table 3 and 500 ng of plasmid comprising an expression cassette encoding an sgRNA shown in Table 4 were co-transfected into HEK293FT cells at 75-90% confluency in 24-well plates using Lipofectamine 2000 reagent (Life Technologies). Cells were then incubated at […] for 72 h. Following incubation, genomic DNA was then extracted using NucleoSpin 96 Tissue (Macherey-Nagel) following the manufacturer's protocol. The genomic region flanking the targeted genomic site was PCR amplified using the primers in Table 4 and products were purified using ZR-96 DNA Clean and Concentrator (Zymo Research) following the manufacturer's protocol. The purified PCR products were then sent for Next Generation Sequencing on Illumina MiSeq (2×250). Results were analyzed for INDEL formation or introduction of % specific cytosine mutations.
The position of each nucleotide in the target sequence was determined. “C17” indicates, for example, a cytosine at position 17 of the target sequence. The position of each nucleotide in the target sequence was determined by numbering the first nucleotide in the target sequence closest to the PAM as position 1, and the position number increases in the 3′ direction away from the PAM sequence.

Which activity does the source give for B1 here?
The activity was 24.4 % mutated reads.

For B2, which activity is on record?
The activity was 20.6 % mutated reads.

How did the activity turn out when B3 was run?
The activity was 16.4 % mutated reads.
